US20160282364A1 (published 2016)

Tests used:
31 = experiment: fluorescence polarization; without insulin
31 + insulin = experiment: fluorescence polarization; Kapp, with 2.5 uM insulin

Kd 31: 42 nM
Kd (31 + insulin): 280 nM
B1: IDE (enzyme)
chain: MNNPAIKRIGNHITKSPEDKREYRGLELANGIKVLLISDPTTDKSSAALDVHIGSLSDPPNIAGLSHFLQHMLFLGTKKYPKENEYSQFLSEHAGSSNAFTSGEHTNYYFDVSHEHLEGALDRFAQFFLSPLFDESAKDREVNAVDSEHEKNVMNDAWRLFQLEKATGNPKHPFSKFGTGNKYTLETRPNQEGIDVRQELLKFHSAYYSSNLMAVVVLGRESLDDLTNLVVKLFSEVENKNVPLPEFPEHPFQEEHLKQLYKIVPIKDIRNLYVTFPIPDLQKYYKSNPGHYLGHLIGHEGPGSLLSELKSKGWVNTLVGGQKEGARGFMFFIINVDLTEEGLLHVEDIILHMFQYIQKLRAEGPQEWVFQELKDLNAVAFRFKDKERPRGYTSKIAGILHYYPLEEVLTAEYLLEEFRPDLIEMVLDKLRPENVRVAIVSKSFEGKTDRTEEWYGTQYKQEAIPDEVIKKWQNADLNGKFKLPTKNEFIPTNFEILPLEKEATPYPALIKDTAMSKLWFKQDDKFFLPKANLNFEFFSPFAYVDPLHSNMAYLYLELLKDSLNEYAYAAELAGLSYDLQNTIYGMYLSVKGYNDKQPILLKKIIEKMATFEIDEKRFEIIKEAYMRSLNNFRAEQPHQHAMYYLRLLMTEVAWTKDELKEALDDVTLPRLKAFIPQLLSRLHIEALLHGNITKQAALGIMQMVEDTLIEHAHTKPLLPSQLVRYREVQLPDRGWFVYQQRNEVHNNSGIEIYYQTDMQSTSENMFLELFAQIISEPAFNTLRTKEQLGYIVFSGPRRANGIQGLRFIIQSEKPPHYLESRVEAFLITMEKSIEDMTEEAFQKHIQALAIRRLDKPKKLSAESAKYWGEIISQQYNFDRDNTEVAYLKTLTKEDIIKFYKEMLAVDAPRRHKVSVHVLAREMDSNPVVGEFPAQNDINLSQAPALPQPEVIQNMTEFKRGLPLFPLVKPHINFMAAKL
